Measured values from article PMC7101348, “Modulation of BIN2 kinase activity by HY5 controls hypocotyl elongation in the light” (Nature Communications, 2020).
Each block holds one binder with its values, some of them ahead of it.

Assays:
[1] = target: T1, His-BIN2 (full-length BIN2) (Arabidopsis thaliana, UniProt Q39011 1-380); experiment: cell-based or functional assay
T1 sequence (looked up): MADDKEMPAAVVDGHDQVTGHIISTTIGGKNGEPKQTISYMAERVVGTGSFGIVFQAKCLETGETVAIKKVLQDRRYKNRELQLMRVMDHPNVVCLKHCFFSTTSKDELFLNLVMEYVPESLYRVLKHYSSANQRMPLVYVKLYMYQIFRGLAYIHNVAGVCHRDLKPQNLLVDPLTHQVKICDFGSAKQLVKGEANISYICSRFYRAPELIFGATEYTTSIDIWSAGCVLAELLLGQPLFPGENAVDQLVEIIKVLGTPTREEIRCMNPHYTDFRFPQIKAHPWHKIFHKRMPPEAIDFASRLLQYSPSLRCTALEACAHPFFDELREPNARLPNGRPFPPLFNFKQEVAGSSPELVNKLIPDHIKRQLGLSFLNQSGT

[2] = target: T1, His-BIN2 (full-length BIN2); experiment: pull-down; 1 μg GST-HY5 and 1 μg His-BIN2 in 1 ml binding buffer (25 mM Tris-Cl pH 7.5, 100 mM NaCl, 0.1% NP40), 4 °C; GST beads; washed with 25 mM Tris-Cl pH 7.5, 500 mM NaCl; blots with anti-GST and anti-His; settings: both partners purified

in vitro kinase assay: BIN2-mediated phosphorylation of BZR1 with recombinant full-length HY5 (HY5-F) added, against the control [1]: ~2 fold
B1: GST-HY5 (full-length HY5, HY5-F) (natural protein, Arabidopsis thaliana, UniProt O24646 1-168, looked up)
chain: MQEQATSSLAASSLPSSSERSSSSAPHLEIKEGIESDEEIRRVPEFGGEAVGKETSGRESGSATGQERTQATVGESQRKRGRTPAEKENKRLKRLLRNRVSAQQARERKKAYLSELENRVKDLENKNSELEERLSTLQNENQMLRHILKNTTGNKRGGGGGSNADASL

binding result [2]: binds
B2: GST-HY5-M (HY5 L137D) (natural protein, Arabidopsis thaliana, UniProt O24646 1-168, looked up)
chain: MQEQATSSLAASSLPSSSERSSSSAPHLEIKEGIESDEEIRRVPEFGGEAVGKETSGRESGSATGQERTQATVGESQRKRGRTPAEKENKRLKRLLRNRVSAQQARERKKAYLSELENRVKDLENKNSELEERLSTDQNENQMLRHILKNTTGNKRGGGGGSNADASL
notes: HY5, Arabidopsis, with Leu137 changed to Asp; Probably full-length HY5; also called mutated HY5; source: recombinant protein, purified

in vitro kinase assay: BIN2-mediated phosphorylation of BZR1 with recombinant C-terminal domain of HY5 (HY5-C) added, against the control [1]: ~2 fold
B3: GST-HY5-C (HY5 aa 78-168) (domain or fragment, Arabidopsis thaliana, UniProt O24646 78-168, looked up)
chain: RKRGRTPAEKENKRLKRLLRNRVSAQQARERKKAYLSELENRVKDLENKNSELEERLSTLQNENQMLRHILKNTTGNKRGGGGGSNADASL
